Measurements published in publication PMC7039211, “Cryo-EM structure of the complete and ligand-saturated insulin receptor ectodomain” (The Journal of Cell Biology, 2019).

Target: the molecule itself
Assay: cryo-EM structure; ~1.4 µM IR-ECD with ~40 µM insulin (28x molar excess), ~30 min at 4°C, HBS; no symmetry imposed; saturated state, 4.3 Å

B1: human insulin receptor ectodomain protomer IRαβ0 (domain or fragment)
chain 1: HLYPGEVCPGMDIRNNLTRLHELENCSVIEGHLQILLMFKTRPEDFRDLSFPKLIMITDYLLLFRVYGLESLKDLFPNLTVIRGSRLFFNYALVIFEMVHLKELGLYNLMNITRGSVRIEKNNELCYLATIDWSRILDSVEDNYIVLNKDDNEECGDICPGTAKGKTNCPATVINGQFVERCWTHSHCQKVCPTICKSHGCTAEGLCCHSECLGNCSQPDDPTKCVACRNFYLDGRCVETCPPPYYHFQDWRCVNFSFCQDLHHKCKNSRRQGCHQYVIHNNKCIPECPSGYTMNSSNLLCTPCLGPCPKVCHLLEGEKTIDSVTSAQELRGCTVINGSLIINIRGGNNLAAELEANLGLIEEISGYLKIRRSYALVSLSFFRKLRLIRGETLEIGNYSFYALDNQNLRQLWDWSKHNLTITQGKLFFHYNPKLCLSEIHKMEEVSGTKGRQERNDIALKTNGDQASCENELLKFSYIRTSFDKILLRWEPYWPPDFRDLLGFMLFYKEAPYQNVTEFDGQDACGSNSWTVVDIDPPLRSNDPKSQNHPGWLMRGLKPWTQYAIFVKTLVTFSDERRTYGAKSDIIYVQTDATNPSVPLDPISVSNSSSQIILKWKPPSDPNGNITHYLVFWERQAEDSELFELDYCLKGLKLPSRTWSPPFESEDSQKHNQSEYEDSAGECCSCPKTDSQILKELEESSFRKTFEDYLHNVVFVPRPSRKRR
chain 2: SLGDVGNVTVAVPTVAAFPNTSSTSVPTSPEEHRPFEKVVNKESLVISGLRHFTGYRIELQACNQDTPEERCSVAAYVSARTMPEAKADDIVGPVTHEIFENNVVHLMWQEPKEPNGLIVLYEVSYRRYGDEELHLCVSRKHFALERGCRLRGLSPGNYSVRIRATSLAGNGSWTEPTYFYVTDYLDVPSNIAK
modifications: glycosylated | glycosylated
stoichiometry N: 2
